From the supplement of paper PMC12042874
± gives the uncertainty stated by the source.

experiment: amyloid nucleation score (Sup35N fusion, yeast selection) (log enrichment); library NNK3; higher = more nucleation; inactive = no reads after selection
Outline: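 Peptides of 20 random codons fused to Sup35N were expressed in psi-negative yeast, induced 24 hours with 100 μM copper sulfate, then grown 7 days at 30°C on medium lacking adenine and uracil. Input and output plasmid inserts were Illumina-sequenced. Nucleation score is the DiMSum log enrichment of output over input reads, centred on the mode score of non-aggregating sequences, excluding sequences with under 100 input reads. Random libraries had three technical output replicates.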

| Substance | amyloid nucleation score |
| --- | --- |
| SLGFGIDSSYGLLTGYKFFT | 0.264 ± 0.21 |
| SLGISKSG | inactive |
| SLIFFL | 1.35 ± 0.12 |
| SLLFFRWDIWTVASGYD | inactive |
| SLLKINGGVIHYFSCRMEDW | 0.684 ± 0.34 |
| SLLLTSWESVYIMRGLDRTI | 0.086 ± 0.42 |
| SLMLLRRTAVRPHWWKLRPN | inactive |
| SLMNPNFFLHMVIRTNCYLK | inactive |
| SLNNSMVWKYH | inactive |
| SLPCSKCAVKLFL | inactive |
| SLPRV | inactive |
| SLRVLWCIRLKCSCLCWISG | inactive |
| SLSATCLCTVMSTNFIFYVF | 0.509 ± 0.41 |
| SLSIASVWWDPGTHVFLALW | inactive |
| SLSSRGLYLSKDLMPILNYR | inactive |
| SLTFTLCRVHGGRESRVSLG | 0.319 ± 0.81 |
| SLVAYLIEGIFNLWEALMDR | inactive |
| SLVLNSMMRTTNKNGNEGYV | inactive |
| SLVSYRLWIYDLWMTWL | inactive |
| SMACCGLSIAATNAPKVPKV | 0.498 ± 0.34 |
| SMATDAWGTTKF | inactive |
| SMATNCTDR | inactive |
| SMFTAIASTTFNLQSLYLM | inactive |
| SMGSPVNVIWTSSYS | inactive |
| SMHYAQYIIIYWRMSSRVYD | inactive |
| SMLAPCHELEHMGRCGECSN | inactive |
| SMLSAIMGSS | inactive |

| Substance | amyloid nucleation score |
| --- | --- |
| SMLSMLTLRSLSLTFMKRNQ | 0.626 ± 0.32 |
| SMQVQMTWLCDRSSLGQRNQ | 1.6 ± 0.11 |
| SMRQSFQWCYHSAECYVHSG | 0.337 ± 0.31 |
| SNASQLY | inactive |
| SNCRCIEGVFYHTYNQKAVR | inactive |
| SNFAMGVRLY | inactive |
| SNFVVSNPISSRGTMNIRII | inactive |
| SNHSRYYRNHDVFWYNIEVG | inactive |
| SNLFTGYGELFVPGS | inactive |
| SNQLNAN | inactive |
| SNRIYHVVFID | 1.89 ± 0.1 |
| SNRKPWARHIVDRACM | -0.922 ± 1.9 |
| SNRYVCLAYYFSE | 0.154 ± 0.49 |
| SNTHLYCLMFRLPCRILDRK | inactive |
| SNVNTAWKRFTRI | inactive |
| SNVPYKDLQTLWCSHPVSVV | inactive |
| SNVTRMVRFFWVEGPTEYWY | inactive |
| SNYGTYRRNSPHSCLRTFWR | inactive |
| SPAQDQLAVRWVGVDRMMWW | -0.434 ± 0.86 |
| SPDDVDYFFLVRNDRMCAYV | inactive |
| SPDGIGTMRGNFLGTPWRCR | inactive |
| SPFVCHEPLLRVVWSSTCSF | inactive |
| SPGYINGNGSSVRSVFNL | inactive |
| SPLTARMADRRDTA | -0.134 ± 1.4 |
| SPLYGYGDKRQVRYLLTGSC | inactive |
| SPTLPGCLVLEIINDNI | inactive |
| SPWYVVFMCNLIFYKGEFTR | inactive |

| Substance | amyloid nucleation score |
| --- | --- |
| SQDGYDLHRSFRLLEVGSEL | inactive |
| SQITRMTPPVSIAADSRFVE | inactive |
| SQKFGALVFI | inactive |
| SQLRMFRVARVLIAEVNAP | inactive |
| SQNAQESIPMRKFITPSRVF | inactive |
| SQTIYGI | inactive |
| SQVDIMGKPADAFVPWFDGS | inactive |
| SRAAPRFRSIP | inactive |
| SRCPRMGYQHALRRWLLPVW | inactive |
| SRGVRIDKMVWNVIGFCHGW | 2.8 ± 0.08 |
| SRILRYVTLSEYWFQPIGLD | inactive |
| SRKLCSHR | -0.557 ± 0.66 |
| SRKVRGYLLMTNFVCLSNYV | inactive |
| SRLCARMSSGKTIGYCNLFL | inactive |
| SRLEGIAGVKKGVMVNQKRL | inactive |
| SRLNFVLVSMQD | inactive |
| SRLWYSPGDYQVFKVRLHIW | inactive |
| SRNILRLKLIRLCSRKGIWW | inactive |
| SRQARCKPCVSCWDRCMWMI | inactive |
| SRRFFRWLSYTFGDGRGWLL | inactive |
| SRRSLNGIN | -0.05 ± 0.3 |
| SRRSSS | 1.28 ± 0.11 |
| SRSSCRVIPT | inactive |
| SRSVDLLSLSRYIYLESRYD | inactive |
| SRSVTESLCLYT | inactive |
| SRTAKSFDATWMITFYGWGP | inactive |
